Target: proton-dissociation-permeated sodium channel (PDPNaC1) (Scolopendra subspinipes mutilans)
Assay: cryo-EM structure; purified PDPNaC1 in LMNG/CHS, pH 8.0, 4.0 mg/mL; 121,831 particles, C3 symmetry, 3.03 Å; closed (non-conductive) state

Substance: proton-dissociation-permeated sodium channel (PDPNaC1) (natural protein)
- stoichiometry N: 3
